The text below walks through data of article PMC9482650, “Quantitative fragmentomics allow affinity mapping of interactomes” (Nature Communications, 2022).

Holding throughout (test): holdup assay
Common to all, as to design: key: below the threshold = too weak to quantify, mostly under pKd 3.1 to 4
Conditions in all cases: plain residues with an end cap or a label only (N-terminal biotin on a linker: ado-ado)

The target of experiment [1] is GRIP2_5, Q9C0E4.
Experiment [2] addresses T1, GRIP1_4, Q9Y3R0.
T1 sequence (Q9Y3R0 467-571, limits assumed, looked up): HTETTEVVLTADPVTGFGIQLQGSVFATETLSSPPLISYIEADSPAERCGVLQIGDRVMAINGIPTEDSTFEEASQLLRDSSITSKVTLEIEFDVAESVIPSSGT

In experiment [3] the target is T2, MPP7, Q5T2T1.
T2 sequence (Q5T2T1 134-230, limits assumed, looked up): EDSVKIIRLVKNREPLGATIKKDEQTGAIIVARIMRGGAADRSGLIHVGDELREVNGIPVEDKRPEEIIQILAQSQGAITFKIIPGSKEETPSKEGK

Experiment [4] deals with T3, GRIP1_2, Q9Y3R0.
T3 sequence (Q9Y3R0 145-248, limits assumed, looked up): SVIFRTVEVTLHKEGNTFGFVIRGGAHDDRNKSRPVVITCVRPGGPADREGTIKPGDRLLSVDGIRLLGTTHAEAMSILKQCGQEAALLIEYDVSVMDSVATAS

The target of experiment [5] is NHERF2_2, Q15599.
NHERF2_2, Q15599, sequence (Q15599 142-238): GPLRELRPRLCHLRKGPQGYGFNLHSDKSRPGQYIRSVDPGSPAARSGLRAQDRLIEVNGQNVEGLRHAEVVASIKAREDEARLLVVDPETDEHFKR
Experiment [6] addresses T4, PDZD7_3, Q9H5P4.
T4 sequence (Q9H5P4 857-944, limits assumed, looked up): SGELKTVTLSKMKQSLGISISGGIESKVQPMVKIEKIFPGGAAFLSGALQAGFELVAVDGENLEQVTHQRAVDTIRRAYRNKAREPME

Experiment [7] concerns the target IL16_3, Q14005.
For experiment [8], the target named is IL16_1, Q14005.
IL16_1, Q14005, sequence (Q14005 210-306): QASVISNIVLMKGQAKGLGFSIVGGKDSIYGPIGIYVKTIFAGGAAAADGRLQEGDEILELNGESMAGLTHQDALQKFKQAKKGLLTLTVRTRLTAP
Experiment [9] concerns the target T5, HTRA4, P83105.
T5 sequence (P83105 378-476, limits assumed, looked up): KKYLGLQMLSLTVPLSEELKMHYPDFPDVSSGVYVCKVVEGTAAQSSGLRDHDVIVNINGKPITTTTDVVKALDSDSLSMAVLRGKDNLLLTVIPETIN

The target of experiment [10] is Inadl_4, Q8NI35.
Inadl_4, Q8NI35, sequence (Q8NI35 547-651): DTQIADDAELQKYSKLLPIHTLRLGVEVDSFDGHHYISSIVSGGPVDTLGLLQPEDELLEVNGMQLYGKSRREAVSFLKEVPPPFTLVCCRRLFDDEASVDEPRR
In experiment [11] the target is T6, DLG3_3, Q92796.
T6 sequence (Q92796 374-475, limits assumed, looked up): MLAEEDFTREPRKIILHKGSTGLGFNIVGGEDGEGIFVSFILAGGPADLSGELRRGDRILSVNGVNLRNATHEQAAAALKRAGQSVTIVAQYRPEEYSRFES

The target in experiment [12] is T7, APBA1_2, Q02410.
T7 sequence (Q02410 742-832, limits assumed, looked up): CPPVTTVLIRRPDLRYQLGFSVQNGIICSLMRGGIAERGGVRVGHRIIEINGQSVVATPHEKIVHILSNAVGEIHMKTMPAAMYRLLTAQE

The target of experiment [13] is T8, ARHGEF11, O15085.
T8 sequence (O15085 42-136, limits assumed, looked up): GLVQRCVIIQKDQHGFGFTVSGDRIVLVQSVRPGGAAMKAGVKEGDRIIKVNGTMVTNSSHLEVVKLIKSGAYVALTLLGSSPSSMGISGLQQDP

The target of experiment [14] is PARD3_3, Q8TEW0.
PARD3_3, Q8TEW0, sequence (Q8TEW0 582-685): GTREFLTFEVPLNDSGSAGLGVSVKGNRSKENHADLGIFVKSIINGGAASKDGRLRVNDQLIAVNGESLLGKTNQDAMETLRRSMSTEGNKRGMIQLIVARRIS
Experiment [15] deals with T9, GRIP1_3, Q9Y3R0.
T9 sequence (Q9Y3R0 247-346, limits assumed, looked up): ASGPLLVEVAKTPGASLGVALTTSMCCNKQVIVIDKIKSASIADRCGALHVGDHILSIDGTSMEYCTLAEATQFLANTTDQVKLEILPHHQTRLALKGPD

Experiment [16] deals with T10, DFNB31_1, Q9P202.
T10 sequence (Q9P202 135-233, limits assumed, looked up): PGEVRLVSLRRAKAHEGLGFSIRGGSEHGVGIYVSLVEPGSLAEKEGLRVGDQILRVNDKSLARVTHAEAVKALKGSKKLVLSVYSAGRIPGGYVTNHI

For experiment [17], the target named is T11, APBA2_2, Q99767.
T11 sequence (Q99767 654-744, limits assumed, looked up): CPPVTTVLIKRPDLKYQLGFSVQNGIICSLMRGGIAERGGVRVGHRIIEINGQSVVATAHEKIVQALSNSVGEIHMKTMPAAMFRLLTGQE

The target in experiment [18] is T12, MPP6, Q9NZW5.
T12 sequence (Q9NZW5 125-219, limits assumed, looked up): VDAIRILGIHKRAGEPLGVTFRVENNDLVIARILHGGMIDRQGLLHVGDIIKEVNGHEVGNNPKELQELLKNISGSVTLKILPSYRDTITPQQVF

The target of experiment [19] is T13, SNTG2, Q9NY99.
T13 sequence (Q9NY99 68-166, limits assumed, looked up): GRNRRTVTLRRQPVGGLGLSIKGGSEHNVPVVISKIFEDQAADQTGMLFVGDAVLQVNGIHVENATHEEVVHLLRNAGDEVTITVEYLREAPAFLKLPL

Experiment [20] addresses MAST1, Q9Y2H9.
Experiment [21] has as its target T14, APBA1_1, Q02410.
T14 sequence (Q02410 651-752, limits assumed, looked up): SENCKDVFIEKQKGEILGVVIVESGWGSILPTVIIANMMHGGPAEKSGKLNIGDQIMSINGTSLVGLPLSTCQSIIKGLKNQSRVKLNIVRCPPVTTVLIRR

For experiment [22], the target named is GRID2IP_2, A4D2P6.
GRID2IP_2, A4D2P6, sequence (A4D2P6 272-370): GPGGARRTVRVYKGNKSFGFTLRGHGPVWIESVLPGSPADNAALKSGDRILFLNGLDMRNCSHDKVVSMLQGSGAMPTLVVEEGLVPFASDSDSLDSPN
Experiment [23] has as its target DLG5_1, Q8TDM6.
Experiment [24] deals with DLG2_3, Q15700.

MAST1, Q9Y2H9, sequence (Q9Y2H9 962-1065): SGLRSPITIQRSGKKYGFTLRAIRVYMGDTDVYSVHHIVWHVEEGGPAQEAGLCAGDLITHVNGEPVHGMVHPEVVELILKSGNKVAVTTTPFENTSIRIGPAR
GRIP2_5, Q9C0E4, sequence (Q9C0E4 544-642): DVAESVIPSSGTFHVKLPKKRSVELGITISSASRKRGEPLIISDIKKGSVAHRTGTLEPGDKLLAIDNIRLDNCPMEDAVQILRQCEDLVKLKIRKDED
DLG5_1, Q8TDM6, sequence (Q8TDM6 617-713): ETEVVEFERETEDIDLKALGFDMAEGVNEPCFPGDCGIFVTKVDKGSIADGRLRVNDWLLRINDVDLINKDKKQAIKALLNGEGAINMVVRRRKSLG
IL16_3, Q14005, sequence (Q14005 1107-1207): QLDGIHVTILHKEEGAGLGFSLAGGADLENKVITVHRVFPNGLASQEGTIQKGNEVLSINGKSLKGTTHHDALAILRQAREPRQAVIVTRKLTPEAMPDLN

With PYPTADHMLA [JUP, P14923], the negative-log Kd (pKd) entry in experiment [1], in experiment [2], in [3], in [4], in experiment [5] and in experiment [6] was “below the threshold” in each case. The negative logarithm of the Kd (pKd) result in [7], in experiment [8], in [9], in experiment [10], in experiment [11] and in experiment [12] was “below the threshold” throughout. Also, the pKd result in experiment [13], in experiment [14], in experiment [15], in [16], in experiment [17] and in [18] was “below the threshold” throughout. Besides, the pKd (usually the negative decadic logarithm of the Kd, by convention in mol/L) in experiment [19] was “below the threshold”; in experiment [20], “below the threshold”; in [21], “below the threshold”; in [22], “below the threshold”; in [23] it was “below the threshold”; in experiment [24], 3.77.
For the molecule AAVENKVTDL [PLXNB1, O43157], the pKd entry in experiment [1] is “below the threshold”; in [2], “below the threshold”; in [3], “below the threshold”; in experiment [4] it was “below the threshold”; in experiment [5], 4.07; in [6] it was 4.91. Further, the pKd result in [7] is “below the threshold”; in experiment [8], “below the threshold”; in [9], “below the threshold”; in [10], “below the threshold”; in [11] it was “below the threshold”; in experiment [12], 4.23. In addition, the pKd in [13] is 4.65; in experiment [14], “below the threshold”; in [15], “below the threshold”; in [16], 3.47; in [17], “below the threshold”; in experiment [18], “below the threshold”. Besides, the negative logarithm of the Kd (pKd) in [19] is 3.98; in experiment [20] it was 4.67; in experiment [21], “below the threshold”; in experiment [22], 4.56; in [23] it was “below the threshold”; in experiment [24], “below the threshold”.
Turning to QKAPTKEFYA [SDC2, P34741], the pKd result in experiment [1], in [2], in experiment [3], in experiment [4], in experiment [5] and in experiment [6] was “below the threshold” each time. For the same molecule, the pKd result in experiment [7], in experiment [8], in experiment [9], in experiment [10], in experiment [11] and in experiment [12] was “below the threshold” throughout. Also, the pKd entry in experiment [13], in experiment [14], in experiment [15], in [16], in experiment [17] and in experiment [18] was “below the threshold” in each case. The pKd entry in experiment [19] is “below the threshold”; in [20], “below the threshold”; in [21], “below the threshold”; in experiment [22] it was “below the threshold”; in experiment [23], “below the threshold”; in experiment [24], 3.83.
Turning to TGLWKHETTV [ADGRA3, Q8IWK6], the negative-log Kd (pKd) result was “below the threshold” in experiment [1]; “below the threshold” in experiment [2]; “below the threshold” in experiment [3]; “below the threshold” in experiment [4]; “below the threshold” in experiment [5]; 4.99 in experiment [6]. Besides, the pKd entry in experiment [7] was “below the threshold”; in experiment [8], 4.09; in experiment [9], 4.15; in [10], “below the threshold”; in [11], 4.77; in [12], 3.59. For the same molecule, the pKd is 4.31 in [13]; 3.54 in [14]; “below the threshold” in [15]; 3.9 in experiment [16]; “below the threshold” in experiment [17]; “below the threshold” in experiment [18]. Further, the pKd was 4.25 in experiment [19]; 4.78 in experiment [20]; “below the threshold” in experiment [21]; “below the threshold” in experiment [22]; “below the threshold” in experiment [23]; 4.86 in experiment [24].
